Test results published in patent US20220289825A1 (NANJING SHUNXIN PHARMACEUTICALS CO LTD OF CHIATAI TIANQING …, published 2022).
“And” between values parts separate entries of the source, which are not always exact repeats. Identical values can stand only once.

Biological target: PD-L1 on CHO-PDL1-CD3L cells (UniProt Q9NZQ7 19-290, limits assumed)
Assay: cell-based or functional assay

Chain of PD-L1 on CHO-PDL1-CD3L cells (Q9NZQ7 19-290 limits assumed): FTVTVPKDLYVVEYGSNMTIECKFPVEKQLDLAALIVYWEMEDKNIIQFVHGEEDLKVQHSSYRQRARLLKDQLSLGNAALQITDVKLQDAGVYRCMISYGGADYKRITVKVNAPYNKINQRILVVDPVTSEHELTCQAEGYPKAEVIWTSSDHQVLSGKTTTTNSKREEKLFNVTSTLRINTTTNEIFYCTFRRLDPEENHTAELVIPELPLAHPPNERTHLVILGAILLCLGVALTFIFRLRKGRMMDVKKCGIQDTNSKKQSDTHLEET

B1: PD-L1 antibody (humanized 5G11-IgG1 antibody of CN107001463) (antibody, V domains shown)
VH: QITLKESGPTLVKPTQTLTLTCTVSGFSLSTYGVHWIRQPPGKALEWLGVIWRGVTTDYNAAFMSRLTITKDNSKNQVVLTMNNMDPVDTATYYCARLGFYAMDYWGQGTLVTVSS
VL: DIQMTQSPSSLSASVGDRVTITCKASQSVSNDVAWYQQKPGKAPKLLIYYAANRYTGVPDRFSGSGYGTDFTFTISSLQPEDIATYFCQQDYTSPYTFGQGTKLEIKR
With B1 the “Biological activity (EC50 of reference sample/EC50 of test sample x 100%)” value was 100% and the “EC50 (nmol/L), reporter gene assay (CHO-PDL1-CD3L + Jurkat-PD-1-NFAT, luciferase RLU)” value was 4.6 nmol/L and 4.15 nmol/L.
